Laboratory results from US20210101977A1.

What was measured:
[1] = molecular target: cynomolgus monkey CD96 on activated primary cynomolgus T cells (cynomolgus monkey); test: flow cytometry (MFI against concentration), activated primary cynomolgus T cells
[2] = molecular target: full-length isoform 1 of human CD96 (SEQ ID NO: 127) expressed on CHO cells (human) (UniProt P40200); test: flow cytometry (MFI against concentration), CHO cells expressing human CD96 isoform 1
[3] = molecular target: full-length isoform 2 of human CD96 (SEQ ID NO: 128) expressed on cells (human) (UniProt P40200); test: flow cytometry (MFI against concentration), CHO cells expressing human CD96 isoform 2
[4] = molecular target: full-length isoform 2 of human CD96 (SEQ ID NO: 128) expressed on cells (human) (UniProt P40200); test: flow cytometry (MFI against concentration), Jurkat cells expressing human CD96 isoform 2
[5] = molecular target: isoform 2 of cynomolgus monkey CD96 (SEQ ID NO: 133) expressed on CHO cells (cynomolgus monkey); test: flow cytometry (MFI against concentration), CHO cells expressing cynomolgus CD96 isoform 2

- Area under the curve (AUC) [1]: 1270
- Area under the curve (AUC) [2]: 43500
- Area under the curve (AUC) [3]: 5810
- Area under the curve (AUC) [4]: 4760
- Area under the curve (AUC) [5]: 6030
Substance: IgG1 isotype control antibody
